Measurements published in PMC4657049.

Biological target: biotinylated eLtaS protein (extracellular domain of LtaS of S. aureus) (S. aureus 8325-4) (UniProt Q2G093)
Test: SPR; biotinylated eLtaS immobilised on Sensor Chip SA; C3 and C3b injected at 300, 100, 30, 10 ug/ml; global kinetic fit

UniProt Q2G093, sequence (Q2G093 whole entry, the tested form may be a part): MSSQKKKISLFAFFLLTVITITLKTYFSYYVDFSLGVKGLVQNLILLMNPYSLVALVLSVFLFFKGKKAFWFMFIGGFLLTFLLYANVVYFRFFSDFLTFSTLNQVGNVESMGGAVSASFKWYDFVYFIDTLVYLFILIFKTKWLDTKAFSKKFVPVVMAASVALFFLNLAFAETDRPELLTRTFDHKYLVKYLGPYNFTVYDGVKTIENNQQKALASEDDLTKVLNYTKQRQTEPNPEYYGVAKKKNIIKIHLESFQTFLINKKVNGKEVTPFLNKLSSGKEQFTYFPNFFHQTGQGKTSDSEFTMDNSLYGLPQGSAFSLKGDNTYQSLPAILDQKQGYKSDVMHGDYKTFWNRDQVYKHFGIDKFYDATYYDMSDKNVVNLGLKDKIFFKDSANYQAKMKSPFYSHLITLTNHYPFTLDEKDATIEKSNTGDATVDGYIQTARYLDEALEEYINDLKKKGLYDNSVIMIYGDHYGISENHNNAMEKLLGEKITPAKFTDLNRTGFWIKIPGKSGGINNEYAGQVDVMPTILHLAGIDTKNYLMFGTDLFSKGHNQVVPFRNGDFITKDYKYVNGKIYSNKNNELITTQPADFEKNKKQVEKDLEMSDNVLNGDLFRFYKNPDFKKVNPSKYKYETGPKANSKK

Substance: human complement C3 (from UniProt P01024 23-667; P01024 672-1663) (natural protein)
- Kd: 0.687 nM
- koff: 0.00149 s⁻¹
- kon: 2.17e+06 M⁻¹ s⁻¹

Substance: human complement C3b (from UniProt P01024 23-667; P01024 749-1663) (domain or fragment)
- Kd: 0.546 nM
- koff: 0.00198 s⁻¹
- kon: 3.63e+06 M⁻¹ s⁻¹
